The target in one experiment is T1, PNPase (Escherichia coli, UniProt P05055).
T1 construct: made in house; host or cells: E. coli Evo21(DE3)
T1 sequence (P05055 whole entry, looked up): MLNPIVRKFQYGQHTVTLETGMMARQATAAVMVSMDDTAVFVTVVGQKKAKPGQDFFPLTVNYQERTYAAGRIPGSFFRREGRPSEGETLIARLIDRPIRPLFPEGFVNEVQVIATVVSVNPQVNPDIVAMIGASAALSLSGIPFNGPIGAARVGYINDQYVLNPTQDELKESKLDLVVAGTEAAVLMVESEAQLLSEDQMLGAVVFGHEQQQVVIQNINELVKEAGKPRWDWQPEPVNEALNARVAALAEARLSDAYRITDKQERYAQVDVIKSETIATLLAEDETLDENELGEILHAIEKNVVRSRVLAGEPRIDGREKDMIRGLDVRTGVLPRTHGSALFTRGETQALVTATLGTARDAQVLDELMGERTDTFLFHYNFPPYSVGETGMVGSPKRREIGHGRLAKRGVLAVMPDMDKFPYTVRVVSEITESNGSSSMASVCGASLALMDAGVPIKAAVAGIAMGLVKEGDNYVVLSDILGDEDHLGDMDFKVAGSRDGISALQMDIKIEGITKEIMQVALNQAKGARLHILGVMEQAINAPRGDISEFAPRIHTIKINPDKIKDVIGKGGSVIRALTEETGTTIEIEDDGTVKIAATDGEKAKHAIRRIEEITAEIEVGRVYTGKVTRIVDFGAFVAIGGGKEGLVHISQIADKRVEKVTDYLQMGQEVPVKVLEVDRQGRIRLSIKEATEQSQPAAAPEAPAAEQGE
It counts as binding, E. coli. Conditions: for Kd (dissociation rate constant, point mutants and wildtype): HEPES pH 7.2, 0, 12.5, 25 and 50 nM (point mutants), dissociation 120 s, duplicates. The text has this:
Briefly, at the N-terminal of the construct, there is an Hisx6 affinity tag that will be used for affinity purification. Following the Hisx6 tag there is an maltose-binding protein (MBP) tag with a TEV cleavage site to maintain solubility of the peptides. Following the MBP tag the gene encoding the peptide is inserted, and is then followed by intein, a self-cleavable tag, followed by a choline-binding domain, which can be used for an extra step of affinity purification. […] After expression, cells were harvested, resuspended in Lysis Buffer 2 (20 mM Tris–HCl, pH 8.0, 80 mM KCl, 300 mM NaCl, 20 mM Imidazole, 0.5 mM TCEP), and lysed with a cell disruptor (Emulsiflex, Avestin). […] After subsequent rounds of washing with Ni Equilibration Buffer supplemented with, respectively, 0.1% Triton-X, 1 M NaCl, and a final wash in Ni Equilibration Buffer, samples were eluted with Ni Elution Buffer (20 mM Tris–HCl, pH 8.0, 300 mM NaCl, 300 mM imidazole, 0.5 mM TCEP). Enriched fractions were then supplemented with 100 mM β-mercaptoethanol to catalyse intein self-cleavage overnight at room temperature. Treated samples were filtered and loaded on an amylose gravity flow column, equilibrated with Amy Equilibration Buffer (20 mM Tris–HCl, pH 8.0, 20 mM NaCl, 20 mM imidazole, 2 mM β-mercaptoethanol) and after washing, His-tagged TEV protease was applied to the resin and incubated at 4°C for 2 h.
PNPase carrying a C-terminal Hisx6 tag was expressed from pExp-cis-Ec_PNP-CHis vector in E. coli Evo21(DE3) cells, induced with 0.4 mM IPTG, at 18°C overnight. After expression, cells were harvested and resuspended in Lysis Buffer 2 (20 mM Tris–HCl, pH 8.0, 80 mM KCl, 300 mM NaCl, 20 mM imidazole, 0.5 mM TCEP), and lysed with a cell disruptor (Emulsiflex, Avestin). […] After subsequent rounds of washing with equilibration buffer supplemented with 0.1% Triton-X, or 1 M NaCl, the sample was eluted with Ni PNPCHis Elution Buffer (20 mM NaH2PO4, pH 8.0, 300 mM NaCl, 300 mM KCl, 5 mM MgCl2, 300 mM imidazole, pH 7.5, 10 mM β-mercaptoethanol). […] Fractions containing PNPase were run through a HiPrep™ 26/10 Desalting Column (GE Healthcare) and buffer exchanged to Q PNPCHis A (20 mM NaH2PO4, pH 8.0, 30 mM NaCl, 10% glycerol, 0.5 mM TCEP).
Interaction measurements were made using a Biacore T200 instrument (GE) at 25°C. PNPase with a 6xHisTag at the CTD was immobilized on a Series S Sensor Chip NTA (Cytiva) to provide a signal of 5 response units (RU). […] For the SPR analysis of the point mutants, binding to PNPase was measured at four different concentrations (0, 12.5, 25, and 50 nM). All concentrations were run in duplicates. The contact time was 60 s, while the dissociation time was 120 s, at a […] flow rate. […] The chip surface was regenerated with 350 mM EDTA in water, following manufacturer's instructions. Data were processed using the manufacturer’s BIAevaluation software.

Experiment [1] has as its target T2, PNPase carrying a C-terminal Hisx6 tag (E. coli polynucleotide phosphorylase) (E. coli, UniProt P05055 1-711).
T2 construct: polynucleotide phosphorylase (PNPase), E. coli; Immobilised through the His tag on an NTA chip for SPR; also called PNPase C-His; PNPase with a 6xHisTag at the CTD; source: E. coli Evo21(DE3), purified (Ni-NTA, butyl-Sepharose HIC, Q, Superdex S200); not shown: His6, C-terminal, kept
T2 sequence (looked up): T1 sequence (P05055 whole entry, looked up)
Put plainly: SPR; PNPase with C-terminal His6 tag immobilised on Series S Sensor Chip NTA (5 RU); Biacore T200, 25°C; 20 mM HEPES pH 7.2, 150 mM NaCl, 5 mM MgCl2, 0.5 mM TCEP, 0.05% Tween 20; six peptide concentrations up to 9000 nM (up to 5000 nM for RNase E 985–1061); contact 60 s, dissociation 120 s. Conditions: both partners purified. On the technique in general: In SPR one partner is held on a chip, and binding of the other changes the refractive index at the surface.

The mark [2] stands for this setting: SPR, 25°C, immobilized PNPase C-His, contact 120 s.
[3] abbreviates: SPR, mutant vs wildtype RNase E 960–1061.

Experimental findings from PMC12489471, “A multi-dentate, cooperative interaction between endo- and exo-ribonucleases within the bacterial RNA degradosome” (Nucleic Acids Research, 2025) are described below.

Positions count from the first letter of the chain named. In names and notes the source's numbering stands. Entries after “also recorded” stand apart in the source; their conditions may differ. Read-outs that look alike come from different tables or passages of the source.

B1: RNase E 960–1039: RNase E peptide carrying the plausible secondary binding motif β2 (peptide)
chain: VVETAEVVVAEPEVVAQPAAPVVAEVAAEVETVAAVEPEVTVEHNHATAPMTRAPAPEYVPEAPRHSDWQRPTFAFEGKG
modifications: left off: His6, N-terminal, cleaved | MBP, N-terminal, cleaved | intein, C-terminal, cleaved | choline-binding domain, C-terminal, cleaved
Take B1: the “binding to PNPase (detected or not)” value in the experiment with PNPase (pH 7.2) is “does not interact with PNPase; also recorded: no binding was detected”.

B2: RNase E 960 – 1061 R1012A: RNase E peptide with point mutation of Arg1012 to alanine (peptide)
chain: VVETAEVVVAEPEVVAQPAAPVVAEVAAEVETVAAVEPEVTVEHNHATAPMTAAPAPEYVPEAPRHSDWQRPTFAFEGKGAAGGHTATHHASAAPARPQPVE
modifications: left off: His6, N-terminal, cleaved | MBP, N-terminal, cleaved | intein, C-terminal, cleaved | choline-binding domain, C-terminal, cleaved
notes: RNase E peptide with point mutation of Arg1012 to alanine
Turning to B2, the “Kd (dissociation rate constant, point mutants and wildtype)” value in the experiment with PNPase (setting [2]) was 0.052 s⁻¹. Also, in the experiment with PNPase (setting [3]), the “association rate compared to the wildtype, in words” value was “does not significantly affect the KD of the interaction and the association rate”; the “dissociation rate (off-rate) compared to the wildtype, in words” value is “faster off-rate; also recorded: faster dissociation rate”; the “effect on KD / binding compared to the wildtype, in words” value is on record as “does not significantly affect the KD of the interaction”.

B3: RNase E 960 – 1061 R1012AR10546A: RNase E peptide with mutation of both Arg1012 and Arg1056 to alanine (peptide)
chain: B2 chain with R97A
modifications: left off: His6, N-terminal, cleaved | MBP, N-terminal, cleaved | intein, C-terminal, cleaved | choline-binding domain, C-terminal, cleaved
notes: RNase E peptide with mutation of both Arg1012 and Arg1056 to alanine
For B3, in the experiment with PNPase (setting [2]), the “Kd (dissociation rate constant, point mutants and wildtype)” value came out at 0.12 s⁻¹; the “KD range in words (double mutant)” value is listed as “low micromolar range”. Besides, the “association rate compared to R1056A, in words” value with PNPase (SPR, double mutant vs slowest-binding single mutant (R1056A)) is recorded as “ten-fold slower”. Further, in the experiment with PNPase (setting [3]), the “association rate compared to the wildtype, in words” value is given as “about two orders of magnitude slower” and the “dissociation rate (off-rate) compared to the wildtype, in words” value is “faster off-rate”. Moreover, the “effect on KD / binding compared to the wildtype, in words” value in the experiment with PNPase (SPR, mutant vs wildtype RNase E 960–1061, listed as R1012AR1056A) is “significant decrease in binding; also recorded: significantly affected the binding to PNPase”.

B4: RNase E 960 – 1061 R1056A: RNase E peptide with point mutation of Arg1056 to alanine (peptide)
chain: B2 chain with A53R, R97A
modifications: left off: His6, N-terminal, cleaved | MBP, N-terminal, cleaved | intein, C-terminal, cleaved | choline-binding domain, C-terminal, cleaved
notes: RNase E peptide with point mutation of Arg1056 to alanine
As for B4, the “Kd (dissociation rate constant, point mutants and wildtype)” value in the experiment with PNPase (setting [2]) amounted to 0.045 s⁻¹. In addition, in the experiment with PNPase (setting [3]), the “KD change compared to the wildtype” value is “roughly 13 fold”; the “association rate compared to the wildtype, in words” value is “ten-fold slower”; the “dissociation rate (off-rate) compared to the wildtype, in words” value is listed as “faster off-rate”.

B5: RNase E 985-1061 (domain or fragment, E. coli, UniProt P21513 985-1061, looked up)
chain: VAAEVETVAAVEPEVTVEHNHATAPMTRAPAPEYVPEAPRHSDWQRPTFAFEGKGAAGGHTATHHASAAPARPQPVE
notes: source: E. coli Evo21(DE3), pMxe vector, purified (Ni-NTA, amylose, TEV, Q, Superdex 75); not shown: His6, N-terminal, cleaved; MBP, N-terminal, cleaved; intein, C-terminal, cleaved
For orientation: Kd means a measure of binding affinity in units of concentration. A high value points to lower affinity. One may read the koff as the first-order rate constant of dissociation. A high value points to fast dissociation. The term kon denotes the rate constant with which the complex forms. In experiment [1], B5 displayed a Kd of 0.00402 µM, a koff of 0.0158 s⁻¹ and a kon of 3.93e+06 M⁻¹ s⁻¹.

B6: RNase E 985-1061: RNase E peptide that includes both β1 and β2 motifs (peptide)
chain: B5 chain
modifications: left off: His6, N-terminal, cleaved | MBP, N-terminal, cleaved | intein, C-terminal, cleaved | choline-binding domain, C-terminal, cleaved
notes: RNase E peptide that includes both β1 and β2 motifs
In the case of B6, the “cause of increase in affinity over 1039–1061, in words” value with PNPase is “both acceleration of on-rate and decrease of off-rate”. In the experiment with PNPase (pH 7.2), the “KD range in words” value is “from the micromolar range to the low nanomolar range”, the k a was determined as 3.93E + 6 1/M s and the k d was 0.0158 s⁻¹.

B7: RNase E 985-1053: RNase E peptide lacking the terminal Pro-rich motif (peptide)
chain: VAAEVETVAAVEPEVTVEHNHATAPMTRAPAPEYVPEAPRHSDWQRPTFAFEGKGAAGGHTATHHASAA
modifications: left off: His6, N-terminal, cleaved | MBP, N-terminal, cleaved | intein, C-terminal, cleaved | choline-binding domain, C-terminal, cleaved
notes: RNase E peptide lacking the terminal Pro-rich motif
As for B7, in the experiment with PNPase, the “binding compared with the peptide including the region with Arg1056, in words” value is listed as “significantly weaker binding”. In the experiment with PNPase (pH 7.2), the “KD range in words” value was “high micromolar”, the k a was 2.94E + 4 1/M s and the k d is 0.339 s⁻¹.

B8: RNase E 1039-1061 (peptide, UniProt P21513 1039-1061, looked up)
chain: GAAGGHTATHHASAAPARPQPVE
notes: as for B5
Consider B8, for which, in experiment [1], the Kd came out at 5.92 µM, the koff turned out to be 0.833 s⁻¹ and the kon was 140000 M⁻¹ s⁻¹.
